Assay results published in the supplement of paper PMC6757056.
± gives the standard deviation of the averaged measurements.

B1: library; a variant is named by its letters at N, in order (parent)
chain: GCUGUCACCGGUGUAUUACCCUAGUGGUCGACCGGUCUGAUGAGUCUNNNNNNAGACGAAACAGC

How the values were obtained:
[1] = variants of: B1; assay: normalized RNA/DNA level with ligand (relative to sTRSVctl = 100) (log10 (% of sTRSVctl)); ligand: hypoxanthine (xanthine aptamer); higher = less ribozyme self-cleavage, higher mRNA level; settings: ligand concentration (+) RNA-Seq: 5 mM, HEK293T, reporter: mCherry (pCS4076), ligand present: yes
Summary of the method: (§1)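 Ribozyme switch library plasmids with mCherry reporters (eGFP in certain ligand experiments) went into HEK293T cells at 4 µg per 6-well well. Where ligand was used, it was applied 1 h before transfection, and total RNA was extracted with EDTA 72 h later for reverse transcription, amplification, barcoding and sequencing. RNA level is the RNA-to-DNA read ratio normalized to a spiked-in non-cleaving sequence or to the leading sequences, then scaled and log-transformed. Scaling was ×100 with log10, the leading set comprised 25 sequences, and the cutoff was ≥100 DNA reads.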

[2] = variants of: B1; assay: normalized RNA/DNA level without ligand (relative to sTRSVctl = 100) (log10 (% of sTRSVctl)); ligand: hypoxanthine (xanthine aptamer); higher = less ribozyme self-cleavage, higher mRNA level; settings: HEK293T, reporter: mCherry (pCS4076), ligand present: no
Summary of the method: as §1

GGAGUA was tested, and the “normalized RNA/DNA level with ligand (log10)” value [1] was 1.896 ± 0.009 and the “normalized RNA/DNA level without ligand (log10)” value [2] was 1.77 ± 0.018.

In the case of GGAGUU, the “normalized RNA/DNA level with ligand (log10)” value [1] is reported as 1.97 ± 0.038 and the “normalized RNA/DNA level without ligand (log10)” value [2] is reported as 1.881 ± 0.0061.

With AGAUUA the “normalized RNA/DNA level with ligand (log10)” value [1] was 1.91 ± 0.024 and the “normalized RNA/DNA level without ligand (log10)” value [2] was 1.8 ± 0.031.

For AGAUUG, the “normalized RNA/DNA level with ligand (log10)” value [1] was 1.88 ± 0.042 and the “normalized RNA/DNA level without ligand (log10)” value [2] was 1.47 ± 0.022.

AGAUUU was tested, and the “normalized RNA/DNA level with ligand (log10)” value [1] was 1.92 ± 0.021 and the “normalized RNA/DNA level without ligand (log10)” value [2] was 1.893 ± 0.011.

With AGCCAC the “normalized RNA/DNA level with ligand (log10)” value [1] was 1.931 ± 0.014 and the “normalized RNA/DNA level without ligand (log10)” value [2] was 1.8318 ± 6.2e-05.

CGCAUU was tested, and the “normalized RNA/DNA level with ligand (log10)” value [1] was 1.942 ± 0.0093 and the “normalized RNA/DNA level without ligand (log10)” value [2] was 1.82 ± 0.036.

For CGCAUA, the “normalized RNA/DNA level with ligand (log10)” value [1] was 1.9 ± 0.052 and the “normalized RNA/DNA level without ligand (log10)” value [2] was 1.69 ± 0.033.

CGCAUG was tested, and the “normalized RNA/DNA level with ligand (log10)” value [1] was 1.93 ± 0.059 and the “normalized RNA/DNA level without ligand (log10)” value [2] was 1.81 ± 0.057.

In the case of CGCCCA, the “normalized RNA/DNA level with ligand (log10)” value [1] is reported as 1.96 ± 0.06 and the “normalized RNA/DNA level without ligand (log10)” value [2] is reported as 1.92 ± 0.041.

With CGCCCG the “normalized RNA/DNA level with ligand (log10)” value [1] was 1.958 ± 0.0098 and the “normalized RNA/DNA level without ligand (log10)” value [2] was 1.915 ± 0.005.

CGCCCU was tested, and the “normalized RNA/DNA level with ligand (log10)” value [1] was 2.077 ± 0.0049 and the “normalized RNA/DNA level without ligand (log10)” value [2] was 1.952 ± 0.014.

In the case of CGCCCC, the “normalized RNA/DNA level with ligand (log10)” value [1] is reported as 1.971 ± 0.013 and the “normalized RNA/DNA level without ligand (log10)” value [2] is reported as 1.922 ± 0.0052.

In the case of UGCCCU, the “normalized RNA/DNA level with ligand (log10)” value [1] is reported as 2.003 ± 0.013 and the “normalized RNA/DNA level without ligand (log10)” value [2] is reported as 1.94 ± 0.028.

With UGCCCG the “normalized RNA/DNA level with ligand (log10)” value [1] was 1.9 ± 0.037 and the “normalized RNA/DNA level without ligand (log10)” value [2] was 1.831 ± 0.014.

With UGCCCC the “normalized RNA/DNA level with ligand (log10)” value [1] was 2.011 ± 0.0086 and the “normalized RNA/DNA level without ligand (log10)” value [2] was 1.9 ± 0.024.

In the case of CGACUG, the “normalized RNA/DNA level with ligand (log10)” value [1] is reported as 1.94 ± 0.023 and the “normalized RNA/DNA level without ligand (log10)” value [2] is reported as 1.828 ± 0.012.

For CGACUA, the “normalized RNA/DNA level with ligand (log10)” value [1] was 1.95 ± 0.079 and the “normalized RNA/DNA level without ligand (log10)” value [2] was 1.698 ± 0.0058.

For CGACUC, the “normalized RNA/DNA level with ligand (log10)” value [1] was 2.06 ± 0.027 and the “normalized RNA/DNA level without ligand (log10)” value [2] was 2.006 ± 0.0054.

With CGACUU the “normalized RNA/DNA level with ligand (log10)” value [1] was 1.9958 ± 0.0011 and the “normalized RNA/DNA level without ligand (log10)” value [2] was 1.896 ± 0.012.

In the case of GGCUAC, the “normalized RNA/DNA level with ligand (log10)” value [1] is reported as 1.933 ± 0.0082 and the “normalized RNA/DNA level without ligand (log10)” value [2] is reported as 1.79 ± 0.093.

For GGCUAA, the “normalized RNA/DNA level with ligand (log10)” value [1] was 1.94 ± 0.046 and the “normalized RNA/DNA level without ligand (log10)” value [2] was 1.86 ± 0.017.

GGCUAG was tested, and the “normalized RNA/DNA level with ligand (log10)” value [1] was 1.812 ± 0.005 and the “normalized RNA/DNA level without ligand (log10)” value [2] was 1.54 ± 0.039.

In the case of GGCUAU, the “normalized RNA/DNA level with ligand (log10)” value [1] is reported as 1.953 ± 0.0089 and the “normalized RNA/DNA level without ligand (log10)” value [2] is reported as 1.876 ± 0.005.

GGAGAU was tested, and the “normalized RNA/DNA level with ligand (log10)” value [1] was 1.93 ± 0.038 and the “normalized RNA/DNA level without ligand (log10)” value [2] was 1.72 ± 0.024.

For CGCCUA, the “normalized RNA/DNA level with ligand (log10)” value [1] was 1.98 ± 0.092 and the “normalized RNA/DNA level without ligand (log10)” value [2] was 1.848 ± 0.014.

CGCCUU was tested, and the “normalized RNA/DNA level with ligand (log10)” value [1] was 1.94 ± 0.033 and the “normalized RNA/DNA level without ligand (log10)” value [2] was 1.92 ± 0.068.

With CGCCUG the “normalized RNA/DNA level with ligand (log10)” value [1] was 2 ± 0.053 and the “normalized RNA/DNA level without ligand (log10)” value [2] was 1.9 ± 0.04.

In the case of AGCCCC, the “normalized RNA/DNA level with ligand (log10)” value [1] is reported as 1.963 ± 0.015 and the “normalized RNA/DNA level without ligand (log10)” value [2] is reported as 1.91 ± 0.089.

AGCCCU was tested, and the “normalized RNA/DNA level with ligand (log10)” value [1] was 1.94 ± 0.03 and the “normalized RNA/DNA level without ligand (log10)” value [2] was 1.932 ± 0.013.

In the case of UGCAAC, the “normalized RNA/DNA level with ligand (log10)” value [1] is reported as 1.963 ± 0.0065 and the “normalized RNA/DNA level without ligand (log10)” value [2] is reported as 1.83 ± 0.022.

With UGCAAU the “normalized RNA/DNA level with ligand (log10)” value [1] was 1.9506 ± 0.00045 and the “normalized RNA/DNA level without ligand (log10)” value [2] was 1.807 ± 0.01.

For UGCAGC, the “normalized RNA/DNA level with ligand (log10)” value [1] was 1.98 ± 0.074 and the “normalized RNA/DNA level without ligand (log10)” value [2] was 1.83 ± 0.055.

In the case of UGCACA, the “normalized RNA/DNA level with ligand (log10)” value [1] is reported as 1.934 ± 0.019 and the “normalized RNA/DNA level without ligand (log10)” value [2] is reported as 1.843 ± 0.0094.

UGCACC was tested, and the “normalized RNA/DNA level with ligand (log10)” value [1] was 1.92 ± 0.057 and the “normalized RNA/DNA level without ligand (log10)” value [2] was 1.93 ± 0.024.

UGCACU was tested, and the “normalized RNA/DNA level with ligand (log10)” value [1] was 1.94 ± 0.088 and the “normalized RNA/DNA level without ligand (log10)” value [2] was 1.9 ± 0.0073.

In the case of UGCACG, the “normalized RNA/DNA level with ligand (log10)” value [1] is reported as 1.923 ± 0.014 and the “normalized RNA/DNA level without ligand (log10)” value [2] is reported as 1.76 ± 0.038.

For CGAUGU, the “normalized RNA/DNA level with ligand (log10)” value [1] was 1.98 ± 0.04 and the “normalized RNA/DNA level without ligand (log10)” value [2] was 1.878 ± 0.016.

CGAUGA was tested, and the “normalized RNA/DNA level with ligand (log10)” value [1] was 1.93 ± 0.018 and the “normalized RNA/DNA level without ligand (log10)” value [2] was 1.79 ± 0.057.

With CGAUGC the “normalized RNA/DNA level with ligand (log10)” value [1] was 1.9 ± 0.07 and the “normalized RNA/DNA level without ligand (log10)” value [2] was 1.829 ± 0.0038.

AGCCUA was tested, and the “normalized RNA/DNA level with ligand (log10)” value [1] was 1.987 ± 0.019 and the “normalized RNA/DNA level without ligand (log10)” value [2] was 1.87 ± 0.028.

In the case of AGCCUC, the “normalized RNA/DNA level with ligand (log10)” value [1] is reported as 2.01 ± 0.082 and the “normalized RNA/DNA level without ligand (log10)” value [2] is reported as 1.959 ± 0.019.

With GGCACA the “normalized RNA/DNA level with ligand (log10)” value [1] was 1.885 ± 0.002 and the “normalized RNA/DNA level without ligand (log10)” value [2] was 1.86 ± 0.03.

For GGCACG, the “normalized RNA/DNA level with ligand (log10)” value [1] was 1.92 ± 0.022 and the “normalized RNA/DNA level without ligand (log10)” value [2] was 1.66 ± 0.029.

With GGCACC the “normalized RNA/DNA level with ligand (log10)” value [1] was 1.92 ± 0.06 and the “normalized RNA/DNA level without ligand (log10)” value [2] was 1.85 ± 0.021.

In the case of GGCACU, the “normalized RNA/DNA level with ligand (log10)” value [1] is reported as 2.011 ± 0.0022 and the “normalized RNA/DNA level without ligand (log10)” value [2] is reported as 1.99 ± 0.025.

With UGACUU the “normalized RNA/DNA level with ligand (log10)” value [1] was 1.913 ± 0.0093 and the “normalized RNA/DNA level without ligand (log10)” value [2] was 1.89 ± 0.03.

For UGACUG, the “normalized RNA/DNA level with ligand (log10)” value [1] was 1.912 ± 0.0096 and the “normalized RNA/DNA level without ligand (log10)” value [2] was 1.77 ± 0.043.

With AGAUAG the “normalized RNA/DNA level with ligand (log10)” value [1] was 1.82 ± 0.025 and the “normalized RNA/DNA level without ligand (log10)” value [2] was 1.441 ± 0.0087.

For AGAUAU, the “normalized RNA/DNA level with ligand (log10)” value [1] was 1.88 ± 0.032 and the “normalized RNA/DNA level without ligand (log10)” value [2] was 1.798 ± 0.015.

With AGCAUC the “normalized RNA/DNA level with ligand (log10)” value [1] was 2.07 ± 0.038 and the “normalized RNA/DNA level without ligand (log10)” value [2] was 1.96 ± 0.025.

UGCGUU was tested, and the “normalized RNA/DNA level with ligand (log10)” value [1] was 1.986 ± 0.0098 and the “normalized RNA/DNA level without ligand (log10)” value [2] was 1.921 ± 0.0049.

With UGCGUC the “normalized RNA/DNA level with ligand (log10)” value [1] was 1.989 ± 0.0044 and the “normalized RNA/DNA level without ligand (log10)” value [2] was 2.031 ± 0.0052.

For UGCGUG, the “normalized RNA/DNA level with ligand (log10)” value [1] was 1.88 ± 0.027 and the “normalized RNA/DNA level without ligand (log10)” value [2] was 1.68 ± 0.084.

CGCCGC was tested, and the “normalized RNA/DNA level with ligand (log10)” value [1] was 1.97 ± 0.063 and the “normalized RNA/DNA level without ligand (log10)” value [2] was 1.923 ± 0.0072.

With CGCCGA the “normalized RNA/DNA level with ligand (log10)” value [1] was 2.04 ± 0.052 and the “normalized RNA/DNA level without ligand (log10)” value [2] was 1.89 ± 0.042.

CGCCGG was tested, and the “normalized RNA/DNA level with ligand (log10)” value [1] was 1.913 ± 0.0023 and the “normalized RNA/DNA level without ligand (log10)” value [2] was 1.61 ± 0.065.

With CGCCGU the “normalized RNA/DNA level with ligand (log10)” value [1] was 1.986 ± 0.014 and the “normalized RNA/DNA level without ligand (log10)” value [2] was 2 ± 0.043.
